# B1: 抗甲型H1N1猪流感病毒血凝素蛋白鼠单克隆抗体 (antibody, V domains shown)
# VH: EIQLQQTGPELVKPGAPVKISCKASGYSLTDYIILWVKQSHGKSLEWIGNINPYFGTTSYNLKFKDKATLTVDKSSSTAYMELNSLTSEDSAVYYCARNDNYAMDYWGQGTSVTVSS
# VL: QIVLTQSPAIMSASLGERVTMTCTASSSVSSTYLHWYQQKPGSSPKLWIYSTSNLASGVPARFSGSGSGTSYSLTISSMEAEDAATYYCHQYHRSPYTFGGGTKLEIKR
# Legend:
# [1] = target: 重组血凝素蛋白 H1N1(A/California/4/2009) (Influenza A virus H1N1 (A/California/4/2009))
# [2] = target: 重组血凝素蛋白 H1N3(A/duck/NZL/160/1976) (Influenza A virus H1N3 (A/duck/NZL/160/1976))
# [3] = target: 重组血凝素蛋白 H1N1(A/California/7/2009) (Influenza A virus H1N1 (A/California/7/2009))
# [4] = target: 重组血凝素蛋白 H1N2(A/swine/Guangxi/13/2006) (Influenza A virus H1N2 (A/swine/Guangxi/13/2006))
# [5] = target: 重组血凝素蛋白 H1N1(A/Ohio/UR06-0091/2007) (Influenza A virus H1N1 (A/Ohio/UR06-0091/2007))
# [6] = target: 重组血凝素蛋白 H1N1(A/Puerto Rico/8/1934) (Influenza A virus H1N1 (A/Puerto Rico/8/1934)) (UniProt P03452)
# [7] = target: 重组血凝素蛋白 H6N1(A/Califomia/HKWF115/2007) (Influenza A virus H6N1 (California/HKWF115/2007 as printed))
# [8] = target: 重组血凝素蛋白 H2N2(A/Canada/720/2005) (Influenza A virus H2N2 (A/Canada/720/2005))
# [9] = target: 重组血凝素蛋白 H1N1(A/New Caledonia/20/1999) (Influenza A virus H1N1 (A/New Caledonia/20/1999))
binder,measurement,setting,value
B1,OD450nm值,[1],2.01 OD450nm
same,OD450nm值,[2],0.001 OD450nm
same,OD450nm值,[3],1.88 OD450nm
same,OD450nm值,[4],0.004 OD450nm
same,OD450nm值,[5],0.015 OD450nm
same,OD450nm值,[6],0.005 OD450nm
same,OD450nm值,[7],0.003 OD450nm
same,OD450nm值,[8],0.002 OD450nm
same,OD450nm值,[9],0.001 OD450nm

# — patent CN104744590A
